According to paper PMC6698841:
Read-outs that look alike come from different tables or passages of the source. Values belong to the molecule of their own block, whether it stands above or below them.

Columns and labels:
[1] = target: Variant 1051 (control; L234A/L235A on both heavy chains) (human); test: SPR; ProteOn XPR36, 25 °C; 10 mM HEPES, 150 mM NaCl, 3.4 mM EDTA, 0.05% Tween 20, pH 7.4; trastuzumab variants captured (approx. 500 RU) on amine-coupled recombinant HER-2 (GLM chip); FcγRs injected as analyte, five concentrations in 3-fold dilution; Equilibrium Fit model, mean of two or three runs
[2] = target: Control Rituximab v1261 (anti-CD20 rituximab with heterodimerising CH3 mutations, no CH2 mutations) (human); test: SPR; ProteOn XPR36, 25 °C; 10 mM HEPES, 150 mM NaCl, 3.4 mM EDTA, 0.05% Tween 20, pH 7.4; rituximab variants captured on amine-coupled goat anti-human Fc; FcγRs injected as analyte, five concentrations in 3-fold dilution; Equilibrium Fit model; ratios against homodimeric trastuzumab WT
Control Rituximab v1261 (anti-CD20 rituximab with heterodimerising CH3 mutations, no CH2 mutations) (human), sequence (heavy, as listed by the source, chain 1 of 2): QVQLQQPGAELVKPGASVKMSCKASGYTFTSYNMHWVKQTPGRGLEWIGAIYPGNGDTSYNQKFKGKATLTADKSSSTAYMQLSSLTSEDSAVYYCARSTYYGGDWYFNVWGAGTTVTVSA
Control Rituximab v1261 (anti-CD20 rituximab with heterodimerising CH3 mutations, no CH2 mutations) (human), sequence (light, as listed by the source, chain 2 of 2): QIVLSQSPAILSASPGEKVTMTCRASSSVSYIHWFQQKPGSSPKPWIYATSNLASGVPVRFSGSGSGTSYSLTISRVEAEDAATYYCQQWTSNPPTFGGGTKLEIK

[3] = target: Variant 791 (trastuzumab with heterodimerising CH3 mutations only, no CH2 mutations) (human); test: SPR; ProteOn XPR36, 25 °C; 10 mM HEPES, 150 mM NaCl, 3.4 mM EDTA, 0.05% Tween 20, pH 7.4; trastuzumab variants captured (approx. 500 RU) on amine-coupled recombinant HER-2 (GLM chip); FcγRs injected as analyte, five concentrations in 3-fold dilution; Equilibrium Fit model, mean of two or three runs
[4] = target: Control Rituximab v1261 (anti-CD20 rituximab with heterodimerising CH3 mutations, no CH2 mutations) (human); test: SPR; ProteOn XPR36, 25 °C; 10 mM HEPES, 150 mM NaCl, 3.4 mM EDTA, 0.05% Tween 20, pH 7.4; rituximab variants captured on amine-coupled goat anti-human Fc; FcγRs injected as analyte, five concentrations in 3-fold dilution; Equilibrium Fit model; ratios against homodimeric trastuzumab WT; remark: listed apart in the source
[5] = target: Variant 1051 (control; L234A/L235A on both heavy chains) (human); test: SPR; ProteOn XPR36, 25 °C; 10 mM HEPES, 150 mM NaCl, 3.4 mM EDTA, 0.05% Tween 20, pH 7.4; trastuzumab variants captured (approx. 500 RU) on amine-coupled recombinant HER-2 (GLM chip); FcγRs injected as analyte, five concentrations in 3-fold dilution; Equilibrium Fit model, mean of two or three runs; remark: listed apart in the source
[6] = target: Variant 791 (trastuzumab with heterodimerising CH3 mutations only, no CH2 mutations) (human); test: as above; remark: listed apart in the source

Kamut/KaWT (WT: homodimeric trastuzumab) [1]: 0.01
Molecule: FcγR 1a (CD64) (from UniProt P12314 16-374) (receptor)

Kamut/KaWT (WT: homodimeric trastuzumab) [1]: 0.52 | Kamut/KaWT (WT: homodimeric trastuzumab) [2]: 1.9
Molecule: FcγR 2b (from UniProt P31994 43-310) (receptor)

Kamut/KaWT (WT: homodimeric trastuzumab) [1]: 0.06 | Kamut/KaWT (WT: homodimeric trastuzumab) [3]: 1.7 | Kamut/KaWT (WT: homodimeric trastuzumab) [2]: 1.9
Molecule: FcγR 2aH (from UniProt P12318 34-317) (receptor)

Kamut/KaWT (WT: homodimeric trastuzumab) [1]: 0.29 | Kamut/KaWT (WT: homodimeric trastuzumab) [2]: 1.4
Molecule: FcγR 3aF (from UniProt P08637 17-254) (receptor)

Kamut/KaWT (WT: homodimeric trastuzumab) [4]: 1.5 | Kamut/KaWT (WT: homodimeric trastuzumab) [5]: 0.06 | Kamut/KaWT (WT: homodimeric trastuzumab) [6]: 1.7
B1: FcγR 2aR, P12318 34-317 (receptor)
chain: QAAAPPKAVLKLEPPWINVLQEDSVTLTCQGARSPESDSIQWFHNGNLIPTHTQPSYRFKANNNDSGEYTCQTGQTSLSDPVHLTVLSEWLVLQTPHLEFQEGETIMLRCHSWKDKPLVKVTFFQNGKSQKFSRLDPTFSIPQANHSHSGDYHCTGNIGYTLFSSKPVTITVQVPSMGSSSPMG
modifications: not checked
